Results: the Immune Epitope Database (IEDB)
pIC50, pKd: −log10 of the molar value. One block for each sequence: values may come before it.

Assays:
HLA-A*01:01 = assay: IEDB peptide-MHC binding, purified MHC/direct/fluorescence; filed as Kd, often an IC50 or EC50 that approximates it; ≥ and ≤ were set here for values at or beyond the usual limits of such assays
HLA-A*02:01 [1] = assay: as above
HLA-A*03:01 = assay: as above
HLA-B*07:02 [2] = assay: as above
HLA-B*08:02 = assay: as above; details: source organism: Giardia lamblia ATCC 50803
HLA-B*15:01 [3] = assay: as above
HLA-B*15:09 = assay: as above; details: source organism: Giardia lamblia ATCC 50803
HLA-B*18:01 = assay: as above; details: source organism: Giardia lamblia ATCC 50803
HLA-B*27:05 = assay: as above
HLA-B*40:01 = assay: as above; details: source organism: Giardia lamblia ATCC 50803
HLA-B*44:02 = assay: as above
HLA-B*58:01 = assay: as above
HLA-A*02:01 [4] = assay: IEDB peptide-MHC binding, purified MHC/competitive/radioactivity; ≥ and ≤ were set here for values at or beyond the usual limits of such assays
HLA-C*05:01 = assay: IEDB peptide-MHC binding, purified MHC/direct/fluorescence; filed as Kd, often an IC50 or EC50 that approximates it; ≥ and ≤ were set here for values at or beyond the usual limits of such assays
HLA-C*15:02 = assay: as above
HLA-C*14:02 = assay: as above; details: source organism: Yersinia pestis Nepal516
HLA-B*07:02 [5] = assay: IEDB peptide-MHC binding, purified MHC/competitive/fluorescence; filed as Kd, often an IC50 or EC50 that approximates it; ≥ and ≤ were set here for values at or beyond the usual limits of such assays; details: source organism: Yersinia pestis Nepal516
HLA-B*51:01 = assay: as above; details: source organism: Yersinia pestis Nepal516
HLA-A*31:01 = assay: IEDB peptide-MHC binding, purified MHC/direct/fluorescence; filed as Kd, often an IC50 or EC50 that approximates it; ≥ and ≤ were set here for values at or beyond the usual limits of such assays; details: source organism: Mycobacterium tuberculosis str. Haarlem
HLA-B*39:01 = assay: as above; details: source organism: Mycobacterium tuberculosis str. Haarlem
HLA-B*46:01 = assay: as above; details: source organism: Mycobacterium tuberculosis str. Haarlem
HLA-B*57:01 = assay: as above; details: source organism: Mycobacterium tuberculosis str. Haarlem
HLA-A*24:02 [6] = assay: as above
HLA-A*02:01 [7] = assay: IEDB peptide-MHC binding, purified MHC/competitive/fluorescence; ≥ and ≤ were set here for values at or beyond the usual limits of such assays; details: source organism: Zaire ebolavirus
HLA-A*24:02 [8] = assay: as above; details: source organism: Zaire ebolavirus
HLA-B*08:01 = assay: as above; details: source organism: Zaire ebolavirus
HLA-B*15:01 [9] = assay: as above; details: source organism: Zaire ebolavirus
HLA-C*06:02 = assay: IEDB peptide-MHC binding, purified MHC/direct/fluorescence; filed as Kd, often an IC50 or EC50 that approximates it; ≥ and ≤ were set here for values at or beyond the usual limits of such assays; details: source organism: Influenza A virus (A/chicken/Fujian/25/00(H9N2))
HLA-C*07:02 = assay: as above; details: source organism: Influenza A virus (A/chicken/Fujian/25/00(H9N2))
HLA-A*02:01 [10] = assay: IEDB peptide-MHC binding, purified MHC/competitive/fluorescence; filed as Kd, often an IC50 or EC50 that approximates it; ≥ and ≤ were set here for values at or beyond the usual limits of such assays; details: source organism: Influenza A virus (A/chicken/Fujian/25/00(H9N2))
[11] = source organism: Giardia lamblia ATCC 50803
[12] = source organism: Listeria monocytogenes EGD-e
[13] = source organism: Yersinia pestis Nepal516
[14] = source organism: Mycobacterium tuberculosis str. Haarlem

Sequence: MIYELCTFR
pKd (HLA-A*01:01; [11]): ≤ 4.70
pKd (HLA-A*02:01 [1]; [11]): ≤ 4.70
pKd (HLA-A*03:01; [11]): 6.07
pKd (HLA-B*07:02 [2]; [11]): ≤ 4.70
pKd (HLA-B*08:02): ≤ 4.70
pKd (HLA-B*15:01 [3]; [11]): ≤ 4.70
pKd (HLA-B*15:09): ≤ 4.70
pKd (HLA-B*18:01): ≤ 4.70
pKd (HLA-B*27:05; [11]): ≤ 4.70
pKd (HLA-B*40:01): ≤ 4.70
pKd (HLA-B*44:02; [11]): ≤ 4.70
pKd (HLA-B*58:01; [11]): ≤ 4.70

Sequence: VLEKGIPTL
pIC50 (HLA-A*02:01 [4]; source organism: Rhinovirus A): 6.70

Sequence: KAAETYHVF
pKd (HLA-B*58:01; source organism: Listeria monocytogenes): 7.66
pKd (HLA-C*05:01; [12]): ≤ 4.70
pKd (HLA-C*15:02; [12]): 7.44

Sequence: RAMKALSSI
pKd (HLA-C*05:01; [13]): ≤ 4.70
pKd (HLA-C*14:02): 6.38
pKd (HLA-C*15:02; [13]): 7.77
pKd (HLA-B*07:02 [5]): 7.90
pKd (HLA-B*51:01): 6.60

Sequence: HVDIRTLED
pIC50 (HLA-A*02:01 [4]; source organism: Human papillomavirus 16): 4.60

Sequence: FHARFVQAL
pKd (HLA-A*01:01; [14]): ≤ 4.70
pKd (HLA-A*02:01 [1]; [14]): ≤ 4.70
pKd (HLA-A*03:01; [14]): ≤ 4.70
pKd (HLA-A*31:01): ≤ 4.70
pKd (HLA-B*07:02 [2]; [14]): ≤ 4.70
pKd (HLA-B*15:01 [3]; [14]): ≤ 4.70
pKd (HLA-B*27:05; [14]): ≤ 4.70
pKd (HLA-B*39:01): 7.25
pKd (HLA-B*44:02; [14]): ≤ 4.70
pKd (HLA-B*46:01): ≤ 4.70
pKd (HLA-B*57:01): ≤ 4.70
pKd (HLA-B*58:01; [14]): ≤ 4.70

Sequence: LYLYVPFLW
pKd (HLA-A*24:02 [6]; source organism: Bacillus cereus 03BB108): 7.26

Sequence: SFKAALSSL
pIC50 (HLA-A*02:01 [7]): ≤ 3.45
pIC50 (HLA-A*24:02 [8]): 6.18
pIC50 (HLA-B*08:01): 4.34
pIC50 (HLA-B*15:01 [9]): 4.82

Sequence: SAICSVVRR
pIC50 (HLA-A*02:01 [4]; source organism: Hepatitis B virus subtype adw2): 5.84

pIC50 (HLA-A*02:01 [4]; source organism: Homo sapiens): 6.99
Sequence: KLIDRTESL

Sequence: ISPRNYFTF
pKd (HLA-A*24:02 [6]; source organism: Toxoplasma gondii): ≥ 9.00

Sequence: WMMAMRYPI
pKd (HLA-C*05:01; source organism: Influenza A virus (A/chicken/Fujian/25/00(H9N2))): ≤ 4.70
pKd (HLA-C*06:02): ≤ 4.70
pKd (HLA-C*07:02): 5.74
pKd (HLA-A*02:01 [10]): 9.70
